Source: publication PMC10794152 (2023)

B1: PfCSS–PfPTRAMP heterodimer (complex)
chain 1: QDEKSVKNICVCDFTDKLNFLPLEKTKILCELKPQYGEDIKIIANKEYEINCMNNSKVFCPLKDTFINNTNIKLYSPKLHFEIKDITHKGKNAALYYLKIDEEASDIFFSCSIKPKQVSGLLEGEVRVNLKKHINEEYSIFNEEEDVHVCDFSKGNLDITPSAGFYLKNSRNVSCIYRVIPNKLFLIKLPKLDIVTEKLLPSIVNCLSEFSFINFTLKHVQEGDNYISFNVIFGEFKKHFNLTCSLDLSDFQQEPCNLGKTANITFIFSK
chain 2: CNLKVRNNWEHFLQVYQNNGNFKMEILEPECTIQKNLPSEEEKEEFIDFDRKELLLHDFVVIKNSQFTDEKTLELYLSKEENNKSYLMLTFYLGDLKLMIGHNSPYEISLILNVATVNKNMSNCKNNSYNIVLLKTTDVFNTSDLEILEGPIQFSLGKSSGAFRINVTNFFLNNTWKAFTKDKISFLIKPEENCYTILENKINKPQLLIEKKTTFYSEWGEWSNCSMDCDHPDNVQIRERECIHPSGDCFKGDLKESRPCIIPLPPCNELFSHKDNST
B2: basigin ectodomain (domain or fragment)
chain: AAGTVFTTVEDLGSKILLTCSLNDSATEVTGHRWLKGGVVLKEDALPGQKTEFKVDSDDQWGEYSCVFLPEPMGTANIQLHGPPRVKAVKSSEHINEGETAMLVCKSESVPPVTDWAWYKITDSEDKALMNGSESRFFVSSSQGRSELHIENLNMEADPGQYRCNGTSSKGSDQAIITLRVRSHLAAL
modifications: labelled with Alexa Fluor 488 (protein-labelling kit)
B3: PfRH5 (natural protein)
chain: ENAIKKTKNQENNLTLLPIKSTEEEKDDIKNGKDIKKEIDNDKENIKTNNAKDHSTYIKSYLNTNVNDGLKYLFIPSHNSFIKKYSVFNQINDGMLLNEKNDVKNNEDYKNVDYKNVNFLQYHFKELSNYNIANSIDILQEKEGHLDFVIIPHYTFLDYYKHLSYNSIYHKSSTYGKYIAVDAFIKKINEAYDKVKSKCNDIKNDLIATIKKLEHPYDINNKNDDSYRYDISEEIDDKSEETDDETEEVEDSIQDTDSNHTPSNKKKNDLMNRAFKKMMDEYNTKKKKLIKCIKNHENDFNKICMDMKNYGTNLFEQLSCYNNNFCNTNGIRYHYDEYIHKLILSVKSKNLNKDLSDMTNILQQSELLLTNLNKKMGSYIYIDTIKFIHKEMKHIFNRIEYHTKIINDKTKIIQDKIKLNIWRTFQKDELLKRILDMSNEYSLFITSDHLRQMLYNTFYSKEKHLNNIFHHLIYVLQMKFNDVPIKMEYFQTYKKNKPLTQ
B4: full-length human basigin (receptor)
chain: AAGTVFTTVEDLGSKILLTCSLNDSATEVTGHRWLKGGVVLKEDALPGQKTEFKVDSDDQWGEYSCVFLPEPMGTANIQLHGPPRVKAVKSSEHINEGETAMLVCKSESVPPVTDWAWYKITDSEDKALMNGSESRFFVSSSQGRSELHIENLNMEADPGQYRCNGTSSKGSDQAIITLRVRSHLAALWPFLGIVAEVLVLVTIIFIYEKRRKPEDVLDDDDAGSAPLKSSGQHQNDKGKNVRQRNSS
modifications: labelled with Alexa Fluor 488 (protein-labelling kit)

What was measured:
PfRIPR tail [1] = molecular target: T1, PfRIPR tail (P. falciparum, UniProt O97302 717-1086, N964Q | N1021Q); assay: SPR; replicate 1
PfRIPR [2] = molecular target: T2, PfRIPR (P. falciparum, UniProt O97302 21-1086); assay: SPR; replicate 1
PfRIPR tail [3] = molecular target: T1, PfRIPR tail; assay: SPR; replicate 2
PfRIPR tail [4] = molecular target: T1, PfRIPR tail; assay: SPR; replicate 4
PfRIPR [5] = molecular target: T2, PfRIPR; assay: SPR; replicate 4
PfRCR complex [6] = molecular target: T3, PfRCR complex (P. falciparum, UniProt Q8IFM8;O97302); assay: MST; replicate 1
PfRCR complex [7] = molecular target: T3, PfRCR complex; assay: MST; replicate 2
[8] = molecular target: B4; assay: MST; replicate 2
basigin ectodomain = molecular target: B2; assay: MST; replicate 2

With B1 the Kd (PfRIPR tail [1]) was 2790 nM, the Kd (PfRIPR [2]) was 2970 nM and the Kd (PfRIPR tail [3]) was 5.37 µM. It also gave a Kd (PfRIPR tail [4]) of 4.9 µM and a Kd (PfRIPR [5]) of 4.32 µM.

Binder B2 has a Kd (PfRCR complex [6]) of 125 nM and a Kd (PfRCR complex [7]) of 184 nM.

With B3 the Kd [8] was 171 nM and the Kd (basigin ectodomain) was 151 nM.

With B4 the Kd (PfRCR complex [6]) was 149 nM and the Kd (PfRCR complex [7]) was 181 nM.
